Reference: IntAct's records for PubMed 35512704

B1: Speckle-type POZ protein (Homo sapiens), O43791 (parent)
chain: MSRVPSPPPPAEMSSGPVAESWCYTQIKVVKFSYMWTINNFSFCREEMGEVIKSSTFSSGANDKLKWCLRVNPKGLDEESKDYLSLYLLLVSCPKSEVRAKFKFSILNAKGEETKAMESQRAYRFVQGKDWGFKKFIRRDFLLDEANGLLPDDKLTLFCEVSVVQDSVNISGQNTMNMVKVPECRLADELGGLWENSRFTDCCLCVAGQEFQAHKAILAARSPVFSAMFEHEMEESKKNRVEINDVEPEVFKEMMCFIYTGKAPNLDKMADDLLAAADKYALERLKVMCEDALCSNLSVENAAEILILADLHSADQLKTQAVDFINYHASDVLETSGWKSMVVSHPHLVAEAYRSLASAQCPFLGPPRKRLKQS
partner: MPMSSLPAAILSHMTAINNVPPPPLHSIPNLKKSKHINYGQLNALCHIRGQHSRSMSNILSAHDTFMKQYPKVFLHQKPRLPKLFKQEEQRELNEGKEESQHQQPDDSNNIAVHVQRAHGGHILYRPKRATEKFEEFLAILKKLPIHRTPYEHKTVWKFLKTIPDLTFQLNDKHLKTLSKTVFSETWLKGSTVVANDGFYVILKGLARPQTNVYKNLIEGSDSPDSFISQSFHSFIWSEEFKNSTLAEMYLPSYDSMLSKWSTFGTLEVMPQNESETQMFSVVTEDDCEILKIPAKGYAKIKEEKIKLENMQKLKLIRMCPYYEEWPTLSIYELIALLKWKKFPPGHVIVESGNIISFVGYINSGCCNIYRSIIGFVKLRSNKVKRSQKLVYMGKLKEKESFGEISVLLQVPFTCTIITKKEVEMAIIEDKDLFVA
B2: Speckle-type POZ protein (Homo sapiens), O43791 (parent)
chain: B1 chain
partner: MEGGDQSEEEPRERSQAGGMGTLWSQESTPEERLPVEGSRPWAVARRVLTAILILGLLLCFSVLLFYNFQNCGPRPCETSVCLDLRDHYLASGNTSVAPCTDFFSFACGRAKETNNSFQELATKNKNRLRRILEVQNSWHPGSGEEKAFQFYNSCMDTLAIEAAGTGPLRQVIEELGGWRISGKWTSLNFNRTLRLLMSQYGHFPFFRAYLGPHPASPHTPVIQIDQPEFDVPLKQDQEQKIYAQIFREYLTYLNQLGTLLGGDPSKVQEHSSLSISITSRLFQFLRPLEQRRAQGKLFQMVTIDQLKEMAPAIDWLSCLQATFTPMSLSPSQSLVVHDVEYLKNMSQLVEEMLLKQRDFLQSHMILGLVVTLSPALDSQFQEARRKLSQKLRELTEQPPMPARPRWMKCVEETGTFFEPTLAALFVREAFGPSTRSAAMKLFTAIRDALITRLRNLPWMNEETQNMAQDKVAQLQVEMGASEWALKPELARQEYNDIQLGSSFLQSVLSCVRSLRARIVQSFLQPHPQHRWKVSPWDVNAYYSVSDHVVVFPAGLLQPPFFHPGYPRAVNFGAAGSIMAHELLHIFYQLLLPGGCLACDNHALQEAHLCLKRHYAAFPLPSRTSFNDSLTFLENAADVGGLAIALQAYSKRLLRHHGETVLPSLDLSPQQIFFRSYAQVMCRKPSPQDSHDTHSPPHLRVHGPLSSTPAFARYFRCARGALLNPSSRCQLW
B3: Speckle-type POZ protein (Homo sapiens), O43791 (parent)
chain: B1 chain
partner: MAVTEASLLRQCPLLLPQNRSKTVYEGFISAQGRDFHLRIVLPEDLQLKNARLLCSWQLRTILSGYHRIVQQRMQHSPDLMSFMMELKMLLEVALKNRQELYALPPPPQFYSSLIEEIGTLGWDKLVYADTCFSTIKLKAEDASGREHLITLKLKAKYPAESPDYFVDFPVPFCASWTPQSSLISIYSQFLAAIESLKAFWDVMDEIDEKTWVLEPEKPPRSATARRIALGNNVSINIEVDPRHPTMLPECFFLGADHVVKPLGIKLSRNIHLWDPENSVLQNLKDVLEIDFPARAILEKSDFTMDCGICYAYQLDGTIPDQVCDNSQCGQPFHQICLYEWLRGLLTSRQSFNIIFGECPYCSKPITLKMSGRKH
B4: Speckle-type POZ protein (Homo sapiens), O43791 (parent)
chain: B1 chain
partner: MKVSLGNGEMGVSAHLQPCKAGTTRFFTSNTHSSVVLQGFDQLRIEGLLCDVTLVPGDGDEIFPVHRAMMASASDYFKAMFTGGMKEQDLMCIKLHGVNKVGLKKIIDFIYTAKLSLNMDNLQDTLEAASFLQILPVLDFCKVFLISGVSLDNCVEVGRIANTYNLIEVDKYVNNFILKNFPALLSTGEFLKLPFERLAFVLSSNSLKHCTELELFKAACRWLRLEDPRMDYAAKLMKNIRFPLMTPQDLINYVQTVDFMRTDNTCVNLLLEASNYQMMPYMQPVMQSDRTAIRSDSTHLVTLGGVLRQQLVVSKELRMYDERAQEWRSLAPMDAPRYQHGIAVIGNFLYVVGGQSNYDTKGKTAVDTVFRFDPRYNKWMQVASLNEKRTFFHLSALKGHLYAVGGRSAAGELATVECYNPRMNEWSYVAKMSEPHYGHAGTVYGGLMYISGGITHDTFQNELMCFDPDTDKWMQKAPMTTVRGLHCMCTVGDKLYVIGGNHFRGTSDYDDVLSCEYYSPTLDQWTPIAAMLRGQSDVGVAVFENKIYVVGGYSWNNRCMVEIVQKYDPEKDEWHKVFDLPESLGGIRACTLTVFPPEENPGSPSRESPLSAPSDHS

Variants of: B1
Conditions: with cnbd1_human CNBD1, Q8NA66

effect of a mutation on the interaction	Variant
with no effect	MSRVPSPPPPAEMSSGPVAESWCYTQIKVVKFSYMWTINNFSFCREEMGEVIKSSTFSSGANDKLKWCLRVNPKGLDEESKDYLSLYLLLVSCPKSEVRAKFKFSILNAKGEETKAMESQRAYRFVQGKDWGVKKFIRRDFLLDEANGLLPDDKLTLFCEVSVVQDSVNISGQNTMNMVKVPECRLADELGGLWENSRFTDCCLCVAGQEFQAHKAILAARSPVFSAMFEHEMEESKKNRVEINDVEPEVFKEMMCFIYTGKAPNLDKMADDLLAAADKYALERLKVMCEDALCSNLSVENAAEILILADLHSADQLKTQAVDFINYHASDVLETSGWKSMVVSHPHLVAEAYRSLASAQCPFLGPPRKRLKQS [F133V]

Variants of: B2
Conditions: with kell_human KEL

effect of a mutation on the interaction	Variant
with no effect	MSRVPSPPPPAEMSSGPVAESWCYTQIKVVKFSYMWTINNFSFCREEMGEVIKSSTFSSGANDKLKWCLRVNPKGLDEESKDYLSLYLLLVSCPKSEVRAKFKFSILNAKGEETKAMESQRAYRFVQGKDWGLKKFIRRDFLLDEANGLLPDDKLTLFCEVSVVQDSVNISGQNTMNMVKVPECRLADELGGLWENSRFTDCCLCVAGQEFQAHKAILAARSPVFSAMFEHEMEESKKNRVEINDVEPEVFKEMMCFIYTGKAPNLDKMADDLLAAADKYALERLKVMCEDALCSNLSVENAAEILILADLHSADQLKTQAVDFINYHASDVLETSGWKSMVVSHPHLVAEAYRSLASAQCPFLGPPRKRLKQS [F133L]

Variants of: B2
Conditions: with kell_human KEL
Remark: another data set of the same source

effect of a mutation on the interaction	Variant
with no effect	MSRVPSPPPPAEMSSGPVAESWCYTQIKVVKFSYMWTINNFSFCREEMGEVIKSSTFSSGANDKLKWCLRVNPKGLDEESKDYLSLYLLLVSCPKSEVRAKFKFSILNAKGEETKAMESQRAYRFVQGKDWGVKKFIRRDFLLDEANGLLPDDKLTLFCEVSVVQDSVNISGQNTMNMVKVPECRLADELGGLWENSRFTDCCLCVAGQEFQAHKAILAARSPVFSAMFEHEMEESKKNRVEINDVEPEVFKEMMCFIYTGKAPNLDKMADDLLAAADKYALERLKVMCEDALCSNLSVENAAEILILADLHSADQLKTQAVDFINYHASDVLETSGWKSMVVSHPHLVAEAYRSLASAQCPFLGPPRKRLKQS [F133V]

Variants of: B2
Conditions: with kell_human KEL
Remark: another data set of the same source

effect of a mutation on the interaction	Variant
with no effect	MSRVPSPPPPAEMSSGPVAESWCYTQIKVVKFSYMWTINNFSFCREEMGEVIKSSTFSSGANDKLKWCLRVNPKGLDEESKDYLSLCLLLVSCPKSEVRAKFKFSILNAKGEETKAMESQRAYRFVQGKDWGFKKFIRRDFLLDEANGLLPDDKLTLFCEVSVVQDSVNISGQNTMNMVKVPECRLADELGGLWENSRFTDCCLCVAGQEFQAHKAILAARSPVFSAMFEHEMEESKKNRVEINDVEPEVFKEMMCFIYTGKAPNLDKMADDLLAAADKYALERLKVMCEDALCSNLSVENAAEILILADLHSADQLKTQAVDFINYHASDVLETSGWKSMVVSHPHLVAEAYRSLASAQCPFLGPPRKRLKQS [Y87C]

Variants of: B3
Conditions: with fancl_human FANCL

effect of a mutation on the interaction	Variant
with no effect	MSRVPSPPPPAEMSSGPVAESWCYTQIKVVKFSYMWTINNFSFCREEMGEVIKSSTFSSGANDKLKWCLRVNPKGLDEESKDYLSLYLLLVSCPKSEVRAKFKFSILNAKGEETKAMESQRAYRFVQGKDWGLKKFIRRDFLLDEANGLLPDDKLTLFCEVSVVQDSVNISGQNTMNMVKVPECRLADELGGLWENSRFTDCCLCVAGQEFQAHKAILAARSPVFSAMFEHEMEESKKNRVEINDVEPEVFKEMMCFIYTGKAPNLDKMADDLLAAADKYALERLKVMCEDALCSNLSVENAAEILILADLHSADQLKTQAVDFINYHASDVLETSGWKSMVVSHPHLVAEAYRSLASAQCPFLGPPRKRLKQS [F133L]

Variants of: B3
Conditions: with fancl_human FANCL
Remark: another data set of the same source

effect of a mutation on the interaction	Variant
with no effect	MSRVPSPPPPAEMSSGPVAESWCYTQIKVVKFSYMWTINNFSFCREEMGEVIKSSTFSSGANDKLKWCLRVNPKGLDEESKDYLSLCLLLVSCPKSEVRAKFKFSILNAKGEETKAMESQRAYRFVQGKDWGFKKFIRRDFLLDEANGLLPDDKLTLFCEVSVVQDSVNISGQNTMNMVKVPECRLADELGGLWENSRFTDCCLCVAGQEFQAHKAILAARSPVFSAMFEHEMEESKKNRVEINDVEPEVFKEMMCFIYTGKAPNLDKMADDLLAAADKYALERLKVMCEDALCSNLSVENAAEILILADLHSADQLKTQAVDFINYHASDVLETSGWKSMVVSHPHLVAEAYRSLASAQCPFLGPPRKRLKQS [Y87C]

Variants of: B4
Conditions: with klhl9_human KLHL9, Q9P2J3

effect of a mutation on the interaction	Variant
with no effect	MSRVPSPPPPAEMSSGPVAESWCYTQIKVVKFSYMWTINNFSFCREEMGEVIKSSTFSSGANDKLKWCLRVNPKGLDEESKDYLSLYLLLVSCPKSEVRAKFKFSILNAKGEETKAMESQRAYRFVQGKDWGLKKFIRRDFLLDEANGLLPDDKLTLFCEVSVVQDSVNISGQNTMNMVKVPECRLADELGGLWENSRFTDCCLCVAGQEFQAHKAILAARSPVFSAMFEHEMEESKKNRVEINDVEPEVFKEMMCFIYTGKAPNLDKMADDLLAAADKYALERLKVMCEDALCSNLSVENAAEILILADLHSADQLKTQAVDFINYHASDVLETSGWKSMVVSHPHLVAEAYRSLASAQCPFLGPPRKRLKQS [F133L]

Variants of: B4
Conditions: with klhl9_human KLHL9, Q9P2J3
Remark: another data set of the same source

effect of a mutation on the interaction	Variant
with no effect	MSRVPSPPPPAEMSSGPVAESWCYTQIKVVKFSYMWTINNFSFCREEMGEVIKSSTFSSGANDKLKWCLRVNPKGLDEESKDYLSLCLLLVSCPKSEVRAKFKFSILNAKGEETKAMESQRAYRFVQGKDWGFKKFIRRDFLLDEANGLLPDDKLTLFCEVSVVQDSVNISGQNTMNMVKVPECRLADELGGLWENSRFTDCCLCVAGQEFQAHKAILAARSPVFSAMFEHEMEESKKNRVEINDVEPEVFKEMMCFIYTGKAPNLDKMADDLLAAADKYALERLKVMCEDALCSNLSVENAAEILILADLHSADQLKTQAVDFINYHASDVLETSGWKSMVVSHPHLVAEAYRSLASAQCPFLGPPRKRLKQS [Y87C]
